{
  "source": "patent US20200157153",
  "proteins": {"B1": {"name": "SpyTag-AmDH (N-His-thrombin-SpyTag-GS-Ch1-AmDH) (protein)", "chain": "MGSSHHHHHHSSGLVPRGSHMMGSSGAHIVMVDAYKPTKGSGGSGVDMSLVEKTSIIKDFTLFEKMSEHEQVVFCNDPATGLRAIIAIHDTTLGPALGGCRMQPYNSVEEALEDALRLSKGMTYSCAASDVDFGGGKAVIIGDPQKDKSPELFRAFGQFVDSLGGRFYTGTDMGTNMEDFIHAMKETNCIVGVPEAYGSSGNPSPATAYGVYRGMKAAAKEAFGSDSLEGKVVAVQGVGNVAYHLCRHLHEEGAKLIVTDINKEAVARAVEEFGAKAVDPNDIYGVECDIFAPCALGGIINDQTIPQLKAKVIAGSALNQLKEPRHGDMIHEMGIVYAPDYVINAGGCINVADELYGYNRERAMKKIEQIYDNIEKVFAIAKRDNIPTYVAADRMAEERIETMRKARSQFLQNGHHILSRRRAR"}},
  "molecular_target": "His-EutM-SpyCatcher (N-His-GS-EutM-GS-SpyCatcher)",
  "data": [
    {"protein": "B1", "values": [
      {"measurement": "relative activity after 48 hours, 1:6 SpyTag-AmDH:EutM-SpyCatcher", "value": "approximately 79% relative activity"}
    ]}
  ]
}
